Experimental data reported in patent publication US20100151573A1 (published 2010).

How the values were obtained:
[1] = molecular target: T1, Recombinant human P-selectin/Fc chimera (rhP/Fc), not conjugated, adsorbed on microtubing (human, UniProt P16109 42-771); assay: perfusion of HL60 cells through rhP/Fc coated microtube
T1 construct: Microtubing pre-incubated with rhP/Fc at 60 ug/ml in PBS for 2 h, then coated with non-targeting nanoparticles; Fc part of the bought chimera not given
T1 sequence (looked up): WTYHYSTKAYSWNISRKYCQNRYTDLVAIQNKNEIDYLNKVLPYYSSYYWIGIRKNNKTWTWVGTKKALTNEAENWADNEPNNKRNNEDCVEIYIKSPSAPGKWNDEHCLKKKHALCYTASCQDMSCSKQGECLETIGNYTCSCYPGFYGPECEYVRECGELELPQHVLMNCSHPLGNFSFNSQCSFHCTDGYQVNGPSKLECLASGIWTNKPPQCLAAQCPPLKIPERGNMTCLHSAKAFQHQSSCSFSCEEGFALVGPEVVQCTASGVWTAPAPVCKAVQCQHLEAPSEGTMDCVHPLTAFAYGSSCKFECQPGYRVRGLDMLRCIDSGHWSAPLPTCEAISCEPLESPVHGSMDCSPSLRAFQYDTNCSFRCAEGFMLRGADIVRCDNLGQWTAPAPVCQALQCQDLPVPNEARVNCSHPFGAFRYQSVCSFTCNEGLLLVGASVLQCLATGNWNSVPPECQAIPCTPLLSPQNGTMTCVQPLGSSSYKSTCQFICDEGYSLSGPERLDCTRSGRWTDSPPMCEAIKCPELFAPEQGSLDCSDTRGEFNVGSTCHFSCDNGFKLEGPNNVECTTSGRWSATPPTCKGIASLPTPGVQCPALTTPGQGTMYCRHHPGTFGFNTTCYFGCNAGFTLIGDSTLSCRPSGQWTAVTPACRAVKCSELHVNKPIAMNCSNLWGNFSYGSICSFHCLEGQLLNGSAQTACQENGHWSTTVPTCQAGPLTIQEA

[2] = molecular target: T2, Recombinant human P-selectin/Fc chimera covalently coupled to DSPE-PEG2000 maleimide and inserted into … (human, UniProt P16109 42-771, sulfhydryl groups introduced at primary amines with Traut's reagent (2-iminothiolane) and linked to the maleimide group of DSPE-PEG2000; positions not stated); assay: perfusion of HL60 cells through nanoparticle coated microtube, microscopy
T2 construct: Bought rhP/Fc (R&D Systems); also called rhP/Fc-DSPE-PEG2000 maleimide; PS-DSPE-PEG NP; Fc part of the bought chimera not given
T2 sequence (looked up): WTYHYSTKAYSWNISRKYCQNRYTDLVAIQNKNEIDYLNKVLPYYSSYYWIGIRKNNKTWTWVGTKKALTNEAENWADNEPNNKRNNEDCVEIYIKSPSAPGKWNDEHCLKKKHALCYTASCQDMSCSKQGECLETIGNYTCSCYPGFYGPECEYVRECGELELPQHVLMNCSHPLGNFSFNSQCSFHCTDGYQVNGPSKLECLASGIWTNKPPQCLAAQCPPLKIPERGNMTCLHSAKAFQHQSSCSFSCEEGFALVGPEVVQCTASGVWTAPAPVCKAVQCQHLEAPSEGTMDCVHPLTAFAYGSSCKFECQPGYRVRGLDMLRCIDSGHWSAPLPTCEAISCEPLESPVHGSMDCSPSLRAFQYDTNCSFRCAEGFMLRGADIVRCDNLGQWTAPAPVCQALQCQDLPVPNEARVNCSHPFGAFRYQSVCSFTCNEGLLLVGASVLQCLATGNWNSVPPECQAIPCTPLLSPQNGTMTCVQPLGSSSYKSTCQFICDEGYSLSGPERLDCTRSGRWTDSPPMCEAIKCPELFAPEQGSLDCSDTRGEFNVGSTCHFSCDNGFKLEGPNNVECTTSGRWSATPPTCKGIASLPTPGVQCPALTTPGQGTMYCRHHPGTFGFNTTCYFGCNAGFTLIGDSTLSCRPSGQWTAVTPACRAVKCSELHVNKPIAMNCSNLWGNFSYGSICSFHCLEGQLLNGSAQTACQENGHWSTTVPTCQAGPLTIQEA
Protocol: P-selectin nanoparticles were coated onto the surface of microrenathane tubing for 2 h at RT, and then perfusion experiments conducted. (a) and (b) were taken before perfusion, (c) and (d) were taken after perfusion but before the cells were released. (e) and (f) were taken after the adherent cells were released from the microtubing. In (g) and (h), HL60 cells were perfused through the P-selectin coated tube. In (i) and (j), cells were pre-incubated with anti-PSGL-1 for 1 h at RT and then perfused through the P-selectin coated tube. In (k) and (l), the perfused cells were MCF7. In (m) and (n), the P-selectin nanoparticles were incubated with anti-P-selectin for 1 h at RT and then applied to the microtube coating. In (o) and (p), P-selectin was replaced with IgG to construct the coating nanoparticles. The pictures were taken after cellular perfusion but before the cells were released from the surface. [III]. Nanoparticles alone could not (q, r, s) but P-selectin nanoparticles could (t, u, v) deliver Cy3-siRNA into HL60 cells under rolling conditions in the microtubing. q and t were taken in epifluorescence mode, r and u were taken in brightfield mode, and s and v are the merge of q and r, and […]. TRITC represents Tetramethyl Rhodamine Iso-Thiocyanate filter. […]

B1: P-selectin glycoprotein ligand-1 (PSGL-1) on HL60 cells (receptor, UniProt Q14242 42-412, looked up)
chain: QATEYEYLDYDFLPETEPPEMLRNSTDTTPLTGPGTPESTTVEPAARRSTGLDAGGAVTELTTELANMGNLSTDSAAMEIQTTQPAATEAQTTQPVPTEAQTTPLAATEAQTTRLTATEAQTTPLAATEAQTTPPAATEAQTTQPTGLEAQTTAPAAMEAQTTAPAAMEAQTTPPAAMEAQTTQTTAMEAQTTAPEATEAQTTQPTATEAQTTPLAAMEALSTEPSATEALSMEPTTKRGLFIPFSVSSVTHKGIPMAASNLSVNYPVGAPDHISVKQCLLAILILALVATIFFVCTVVLAVRLSRKGHMYPVRNYSPTEMVCISSLLPDGGEGPSATANGGLSKAKSPGLTPEPREDREGDDLTLHSFLP
notes: whole, on cells; also called P-selectin receptor; PSGL-1 receptors in HL60 cells
B1: binds [1]; binds [2].
